Measured values: US20240417469A1 (CONCEPT TO MEDICINE BIOTECH, published 2024)
Positions count from the first letter of the chain named.

B1: Hu153A6B1-9 (antibody, V domains shown)
VH: EVQLQESGPGLVKPSETLSLTCTVSGGSISSYNIHWVRQPPGKGLEWMGRIRYNGDTSYNSALKSRLTISRDTSKNQFSLKLSSVTAADTAVYYCARGPYGGSREPLFDYWGQGTMVTVSS
VL: DIQMTQSPSSLSASVGDRVTITCKTSQNINKYLNWFQQKPGKAPKLLIYTTNNLQTGIPSRFSGSGSGTDFTLTISSLQPEDFATYYCLQHGSGYTFGQGTKLEIK
notes: humanized mAb
B2: Hu153A6B1-1 (antibody, V domains shown)
VH: B1 VH with V37I, M48I, L67V, R71V
VL: B1 VL with F36Y, I58V
notes: humanized mAb
B3: Hu153A6B1-3 (antibody, V domains shown)
VH: B1 VH
VL: B1 VL with F36Y, I58V
notes: humanized mAb
B4: Hu153A6B1-2 (antibody, V domains shown)
VH: B1 VH with M48I, L67V
VL: B1 VL with F36Y, I58V
notes: humanized mAb
B5: Hu153A6B1-4 (antibody, V domains shown)
VH: B1 VH with A96T
VL: B1 VL with F36Y, I58V
notes: humanized mAb
B6: Hu192A7B9-16 (antibody, V domains shown)
VH: B1 VH with I34V, I51M, A96T, Y100R, S103Y, R104Y, E105S, P106A
VL: B1 VL with T25A, K31R, F36Y, Y49S, T50I, T51A, N53S, G92N, G94W
notes: humanized mAb
B7: Hu192A7B9-1 (antibody, V domains shown)
VH: EVQLQESGPGLVKPSETLSLTCTVSGGSISSYNVHWIRQPPGKGLEWIGRMRYNGDTSYNSALKSRVTISVDTSKNQFSLKLSSVTAADTAVYYCARGPRGGYYSALFDYWGQGTMVTVSS
VL: B1 VL with T25A, K31R, F36Y, T50I, T51A, N53S, I58V, G92N, G94W
notes: humanized mAb
B8: Hu192A7B9-4 (antibody, V domains shown)
VH: B7 VH with I37V, I48M, V67L, V71R, A96T
VL: B1 VL with T25A, K31R, F36Y, T50I, T51A, N53S, I58V, G92N, G94W
notes: humanized mAb
B9: Hu192A7B9-2 (antibody, V domains shown)
VH: B7 VH with I37V, V71R
VL: B1 VL with T25A, K31R, F36Y, T50I, T51A, N53S, I58V, G92N, G94W
notes: humanized mAb
B10: Hu192A7B9-3 (antibody, V domains shown)
VH: B7 VH with I37V, I48M, V67L, V71R
VL: B1 VL with T25A, K31R, F36Y, T50I, T51A, N53S, I58V, G92N, G94W
notes: humanized mAb
B11: Hu192A7B9-22 (antibody, V domains shown)
VH: B7 VH with I37V, I48M, V67L, V71R, A96T
VL: DIQMTQSPSSLSASVGDRVTITCKASQNINRYLNWYQQKPGKAPKVLISIANSLQTGIPSRFSGSGSGTDFTLTISSLQPEDFATYFCLQHNSWYTFGQGTKLEIK
notes: humanized mAb
B12: Hu192A7B9-11 (antibody, V domains shown)
VH: B7 VH with G27F, I37V, I48M, V67L, V71R, F78V, A96T
VL: B11 VL with V46L, I58V, F87Y
notes: humanized mAb
B13: Hu192A7B9-13 (antibody, V domains shown)
VH: B7 VH
VL: B11 VL with V46L, F87Y
notes: humanized mAb
B14: Hu192A7B9-15 (antibody, V domains shown)
VH: B7 VH with I37V, I48M, V67L, V71R
VL: B11 VL with V46L, F87Y
notes: humanized mAb
B15: Hu192A7B9-24 (antibody, V domains shown)
VH: B7 VH with G27F, I29L, S30T, I37V, I48M, V67L, V71R, F78V, A96T
VL: B11 VL
notes: humanized mAb
B16: Hu192A7B9-8 (antibody, V domains shown)
VH: B7 VH with I37V, V71R
VL: B11 VL with V46L, I58V, F87Y
notes: humanized mAb
B17: Hu192A7B9-14 (antibody, V domains shown)
VH: B7 VH with I37V, V71R
VL: B11 VL with V46L, F87Y
notes: humanized mAb
B18: Hu192A7B9-17 (antibody, V domains shown)
VH: B7 VH with G27F, I37V, I48M, V67L, V71R, F78V, A96T
VL: B11 VL with V46L, F87Y
notes: humanized mAb
B19: Hu192A7B9-6 (antibody, V domains shown)
VH: B7 VH with G27F, I29L, S30T, I37V, I48M, V67L, V71R, F78V, A96T
VL: B11 VL with V46L, S49Y, I58V, F87Y
notes: humanized mAb
B20: Hu192A7B9-21 (antibody, V domains shown)
VH: B7 VH with I37V, I48M, V67L, V71R
VL: B11 VL
notes: humanized mAb
B21: Hu192A7B9-7 (antibody, V domains shown)
VH: B7 VH
VL: B11 VL with V46L, I58V, F87Y
notes: humanized mAb
B22: Hu192A7B9-10 (antibody, V domains shown)
VH: B7 VH with I37V, I48M, V67L, V71R, A96T
VL: B11 VL with V46L, I58V, F87Y
notes: humanized mAb
B23: Hu192A7B9-9 (antibody, V domains shown)
VH: B7 VH with I37V, I48M, V67L, V71R
VL: B11 VL with V46L, I58V, F87Y
notes: humanized mAb
B24: Hu192A7B9-18 (antibody, V domains shown)
VH: B7 VH with G27F, I29L, S30T, I37V, I48M, V67L, V71R, F78V, A96T
VL: B11 VL with V46L, F87Y
notes: humanized mAb
B25: Hu192A7B9-20 (antibody, V domains shown)
VH: B7 VH with I37V, V71R
VL: B11 VL
notes: humanized mAb
B26: Hu192A7B9-5 (antibody, V domains shown)
VH: B7 VH with G27F, I37V, I48M, V67L, V71R, F78V, A96T
VL: B11 VL with V46L, S49Y, I58V, F87Y
notes: humanized mAb
B27: Hu192A7B9-19 (antibody, V domains shown)
VH: B7 VH
VL: B11 VL
notes: humanized mAb
B28: Hu192A7B9-23 (antibody, V domains shown)
VH: B7 VH with G27F, I37V, I48M, V67L, V71R, F78V, A96T
VL: B11 VL
notes: humanized mAb
B29: Hu192A7B9-12 (antibody, V domains shown)
VH: B7 VH with G27F, I29L, S30T, I37V, I48M, V67L, V71R, F78V, A96T
VL: B11 VL with V46L, I58V, F87Y
notes: humanized mAb

What follows are binders tested against T1, human CD3 on cells (human PBMC; Jurkat TCR/CD3 NFAT reporter cells) (human, UniProt P07766 23-207; P04234 22-171; P09693 23-182) (assay: cell-based or functional assay).
Throughout, for Emax: unit not given here.

T1 sequence (P07766 23-207, chain 1 of 3): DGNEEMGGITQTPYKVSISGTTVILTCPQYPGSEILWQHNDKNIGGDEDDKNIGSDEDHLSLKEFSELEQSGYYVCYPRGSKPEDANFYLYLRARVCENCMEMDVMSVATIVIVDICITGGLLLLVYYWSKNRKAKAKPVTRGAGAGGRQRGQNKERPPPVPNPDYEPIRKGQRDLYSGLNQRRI
T1 sequence (P04234 22-171, chain 2 of 3): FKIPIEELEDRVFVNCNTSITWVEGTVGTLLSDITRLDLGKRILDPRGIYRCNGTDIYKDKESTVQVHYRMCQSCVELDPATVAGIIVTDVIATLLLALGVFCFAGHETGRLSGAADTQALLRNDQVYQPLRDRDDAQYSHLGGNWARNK
T1 sequence (P09693 23-182, chain 3 of 3): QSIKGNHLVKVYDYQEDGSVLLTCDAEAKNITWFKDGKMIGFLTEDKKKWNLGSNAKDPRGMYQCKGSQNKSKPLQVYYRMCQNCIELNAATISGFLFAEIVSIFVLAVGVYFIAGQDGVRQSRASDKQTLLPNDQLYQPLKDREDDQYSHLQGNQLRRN

Row | % of SP34 [%] | Emax | Binder
1 | 73.6 | 4310 | B1
2 | 19.8 | 1160 | B2
3 | 45.5 | 2660 | B3
4 | 42.6 | 2500 | B4
5 | 44.1 | 2580 | B5

Molecular target: T1, human CD3 on cells (human PBMC; Jurkat …)
Experiment: cell-based or functional assay
Remark: another data set of the same source

Row | CD3-NFAT Activity by CD3 mAb [% SP34] | Binder
6 | > 50 | B1
7 | > 50 | B6
8 | ≤ 50 | B7
9 | ≤ 50 | B8
10 | ≤ 50 | B9
11 | ≤ 50 | B10
12 | > 50 | B11
13 | > 50 | B12
14 | ≤ 50 | B2
15 | ≤ 50 | B13
16 | > 50 | B14
17 | > 50 | B15
18 | > 50 | B16
19 | > 50 | B17
20 | > 50 | B18
21 | > 50 | B19
22 | > 50 | B20
23 | ≤ 50 | B21
24 | > 50 | B22
25 | > 50 | B23
26 | ≤ 50 | B3
27 | > 50 | B24
28 | > 50 | B25
29 | ≤ 50 | B4
30 | > 50 | B26
31 | > 50 | B27
32 | > 50 | B28
33 | ≤ 50 | B5
34 | > 50 | B29

Each binder was assayed against T2, human CD3 protein (human, UniProt P07766 23-126; P04234 22-105) (assay: ELISA, plate-coated CD3;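 note: binding to plate-immobilized human CD3 protein, bound antibody detected with peroxidase-labelled anti-human IgG and TMB, read as absorbance at 450 nm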).
T2 construct: ELISA coating protein; also called Human CD3D & CD3E Heterodimer Protein
T2 sequence (P07766 23-126 limits assumed, chain 1 of 2): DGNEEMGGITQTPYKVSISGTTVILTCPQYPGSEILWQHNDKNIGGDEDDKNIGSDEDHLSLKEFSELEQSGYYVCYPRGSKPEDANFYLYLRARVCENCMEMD
T2 sequence (P04234 22-105 limits assumed, chain 2 of 2): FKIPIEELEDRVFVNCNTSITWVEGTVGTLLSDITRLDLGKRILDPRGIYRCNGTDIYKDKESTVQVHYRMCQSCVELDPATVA

Row | EC50 [ng/mL] | Binder
35 | 3.35 | B1
36 | 7.46 | B6
37 | 148 | B7
38 | 22.8 | B8
39 | 194 | B9
40 | 86.2 | B10
41 | 7.12 | B11
42 | 7.95 | B12
43 | 16.3 | B2
44 | 14.5 | B13
45 | 28.8 | B14
46 | 20.2 | B15
47 | 6.42 | B16
48 | 5.02 | B17
49 | 4.46 | B18
50 | 8.59 | B19
51 | 5.46 | B20
52 | 22.6 | B21
53 | 5.08 | B22
54 | 5.58 | B23
55 | 3.87 | B3
56 | 8.83 | B24
57 | 5.15 | B25
58 | 3.39 | B4
59 | 5.52 | B26
60 | 4.98 | B27
61 | 15.8 | B28
62 | 3.72 | B5
63 | 9.74 | B29

What follows are binders tested against T3, recombinant CD3D&E protein (human CD3-his tag) (human, UniProt P04234 22-105; P07766 23-126, limits assumed) (assay: SPR Biacore, Ab captured on Protein A;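 note: humanized antibodies on a Protein A chip, human CD3-his analyte flowed over in serial dilutions for 3 min, dissociation tracked 120–360 s on a Biacore T200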).
T3 construct: Analyte in Biacore; also called CD3D&E-His; CD3d&ε-His
T3 sequence (P04234 22-105 limits assumed, chain 1 of 2): as the sequence (P04234 22-105 limits assumed, chain 2 of 2) above
T3 sequence (P07766 23-126 limits assumed, chain 2 of 2): as the sequence (P07766 23-126 limits assumed, chain 1 of 2) above

Row | Kd [nM] | koff [s⁻¹] | kon [M⁻¹ s⁻¹] | Binder
64 | 61.7 | 0.0344 | 558000 | B1
65 | 146 | 0.0143 | 97600 | B6
66 | 55 | 0.00462 | 83900 | B11
67 | 77.7 | 0.00449 | 57800 | B12
68 | 8.81 | 0.00391 | 444000 | B2
69 | 22 | 0.00631 | 286000 | B13
70 | 40.9 | 0.00741 | 181000 | B14
71 | 9.21 | 0.000594 | 64500 | B15
72 | 58.9 | 0.0475 | 805000 | B16
73 | 86.7 | 0.0179 | 206000 | B17
74 | 64.8 | 0.00532 | 82200 | B18
75 | 283 | 0.024 | 84900 | B19
76 | 55.1 | 0.00499 | 90600 | B20
77 | 79.6 | 0.0151 | 190000 | B21
78 | 122 | 0.0144 | 118000 | B22
79 | 92.7 | 0.0204 | 220000 | B23
80 | 59.5 | 0.0241 | 406000 | B3
81 | 56 | 0.00317 | 56500 | B24
82 | 60.3 | 0.00561 | 93100 | B25
83 | 50 | 0.0201 | 402000 | B4
84 | 103 | 0.0119 | 116000 | B26
85 | 34.5 | 0.00543 | 157000 | B27
86 | 12.3 | 0.000862 | 70200 | B28
87 | 58.5 | 0.0195 | 334000 | B5
88 | 58.1 | 0.00317 | 54600 | B29
